The record followed here is patent publication US20210380703A1.

To fix the notation:
B1: 371_F04 (antibody, V domains shown)
VH: EVQLLESGGGLVQPGGSLRLSCAASGFTFDSYSMNWVRQAPGKGLEWVAGINYNSGYKGYADSVKGRFTISRDNSKNTLYLQMNSLRAEDTAVYYCARSANWHDTALDYWGQGTLVTVSS
VL: DIQMTQSPSSLSASVGDRVTITCRASQSILSYLNWYQQKPGKAPKLLIYAATSRHSGVPSRFSGSGSGTDFTLTISSLQPEDFATYYCQQSYNNPLTFGGGTKVEIK
B2: 373_C06 (antibody, V domains shown)
VH: EVQLLESGGGLVQPGGSLRLSCAASGFTFSSYSMNWVRQAPGKGLEWVAGINYNGGYTGYADSVKGRFTISRDNSKNTLYLQMNSLRAEDTAVYYCARSANWHDTALDYWGQGTLVTVSS
VL: DIQMTQSPSSLSASVGDRVTITCRASQSIVSYVNWYQQKPGKAPKLVIYAATSRASGVPSRFSGSGSGTDFTLTISSLQPEDFATYYCQQSYDTPLTFGGGTKVEIK
B3: 372_A04 (antibody, V domains shown)
VH: EVQLLESGGGLVQPGGSLRLSCAASGFTFDSYSMNWVRQAPGKGLEWVSGINYNSGYTSYADSVKGRFTISRDNSKNTLYLQMNSLRAEDTAVYYCARSANWHDTALDYWGQGTLVTVSS
VL: DIQMTQSPSSLSASVGDRVTITCRASQSILTYLNWYQQKPGKAPKLVIYAATSRASGVPSRFSGSGSGTDFTLTISSLQPEDFATYYCQQSYETPLTFGGGTKVEIK
B4: 373_A10 (antibody, V domains shown)
VH: EVQLLESGGGLVQPGGSLRLSCAASGFTFSSYGMNWVRQAPGKGLEWVSGINYNSGYTSYADSVKGRFTISRDNSKNTLYLQMNSLRAEDTAVYYCARSANWHDTALDYWGQGTLVTVSS
VL: DIQMTQSPSSLSASVGDRVTITCRASQSILSYLNWYQQKPGKAPKLVIYAATSRASGVPSRFSGSGSGTDFTLTISSLQPEDFATYYCQQSYDLPLTFGGGTKVEIK
B5: 373_B12 (antibody, V domains shown)
VH: EVQLLESGGGLVQPGGSLRLSCAASGFTFDSYGMNWVRQAPGKGLEWVSSINYNSGYTSYADSVKGRFTISRDNSKNTLYLQMNSLRAEDTAVYYCARSANWHDTALDYWGQGTLVTVSS
VL: DIQMTQSPSSLSASVGDRVTITCRASQSIVSYVNWYQQKPGKAPKLLIYAATSRASGVPSRFSGSGSGTDFTLTISSLQPEDFATYYCQQSYDSPLTFGGGTKVEIK
B6: 373_C04 (antibody, V domains shown)
VH: EVQLLESGGGLVQPGGSLRLSCAASGFTFSSYSMNWVRQAPGKGLEWVANINYNSGYTGYADSVKGRFTISRDNSKNTLYLQMNSLRAEDTAVYYCARSANWHDTALDYWGQGTLVTVSS
VL: DIQMTQSPSSLSASVGDRVTITCRASQSIISYVNWYQQKPGKAPKLVIYAVTSRASGVPSRFSGSGSGTDFTLTISSLQPEDFATYYCQQSYNSPLTFGGGTKVEIK
B7: 372_F06 (antibody, V domains shown)
VH: EVQLLESGGGLVQPGGSLRLSCAASGFTFSDYGMNWVRQAPGKGLEWVAGINYNGGYKSYADSVKGRFTISRDNSKNTLYLQMNSLRAEDTAVYYCARSANWHDTALDYWGQGTLVTVSS
VL: DIQMTQSPSSLSASVGDRVTITCRASQSILSYVNWYQQKPGKAPKLLIYAATSLASGVPSRFSGSGSGTDFTLTISSLQPEDFATYYCQQSYETPLTFGGGTKVEIK
B8: 373_C08 (antibody, V domains shown)
VH: EVQLLESGGGLVQPGGSLRLSCAASGFTFSSYSMNWVRQAPGKGLEWVANINYNGGYTSYADSVKGRFTISRDNSKNTLYLQMNSLRAEDTAVYYCARSANWHDTALDYWGQGTLVTVSS
VL: DIQMTQSPSSLSASVGDRVTITCRASQSIISYLNWYQQKPGKAPKLLIYAASSLQSGVPSRFSGSGSGTDFTLTISSLQPEDFATYYCQQSYNNPLTFGGGTKVEIK
B9: 371_G10 (antibody, V domains shown)
VH: EVQLLESGGGLVQPGGSLRLSCAASGFTFSSYSMNWVRQAPGKGLEWVSGINYNGGYKSYADSVKGRFTISRDNSKNTLYLQMNSLRAEDTAVYYCARSANWHDTALDYWGQGTLVTVSS
VL: DIQMTQSPSSLSASVGDRVTITCRASQSISSYVNWYQQKPGKAPKLLIYAATSRHSGVPSRFSGSGSGTDFTLTISSLQPEDFATYYCQQSDDSPLTFGGGTKVEIK
B10: 373_A08 (antibody, V domains shown)
VH: EVQLLESGGGLVQPGGSLRLSCAASGFTFDSYGMNWVRQAPGKGLEWVSNINYNGGYTGYADSVKGRFTISRDNSKNTLYLQMNSLRAEDTAVYYCARSANWHDTALDYWGQGTLVTVSS
VL: DIQMTQSPSSLSASVGDRVTITCRASQSIVSYVNWYQQKPGKAPKLLIYAATSLASGVPSRFSGSGSGTDFTLTISSLQPEDFATYYCQQSYSLPLTFGGGTKVEIK
B11: 371_H09 (antibody, V domains shown)
VH: EVQLLESGGGLVQPGGSLRLSCAASGFTFDSYSMNWVRQAPGKGLEWVSNINYNGGYTSYADSVKGRFTISRDNSKNTLYLQMNSLRAEDTAVYYCARSANWHDTALDYWGQGTLVTVSS
VL: DIQMTQSPSSLSASVGDRVTITCRASQSILTYVNWYQQKPGKAPKLVIYAATSLASGVPSRFSGSGSGTDFTLTISSLQPEDFATYYCQQSYDSPLTFGGGTKVEIK
B12: 371_F06 (antibody, V domains shown)
VH: EVQLLESGGGLVQPGGSLRLSCAASGFTFDSYSMNWVRQAPGKGLEWVANINYNGGYTSYADSVKGRFTISRDNSKNTLYLQMNSLRAEDTAVYYCARSANWHDTALDYWGQGTLVTVSS
VL: DIQMTQSPSSLSASVGDRVTITCRASQSIVSYLNWYQQKPGKAPKLVIYAATSRHSGVPSRFSGSGSGTDFTLTISSLQPEDFATYYCQQSYNSPLTFGGGTKVEIK
B13: 373_B06 (antibody, V domains shown)
VH: EVQLLESGGGLVQPGGSLRLSCAASGFTFSDYSMNWVRQAPGKGLEWVAGINYNGGYTGYADSVKGRFTISRDNSKNTLYLQMNSLRAEDTAVYYCARSANWHDTALDYWGQGTLVTVSS
VL: DIQMTQSPSSLSASVGDRVTITCRASQSILTYVNWYQQKPGKAPKLVIYAATSRHSGVPSRFSGSGSGTDFTLTISSLQPEDFATYYCQQSYESPLTFGGGTKVEIK
B14: 373_B10 (antibody, V domains shown)
VH: EVQLLESGGGLVQPGGSLRLSCAASGFTFDSYGMNWVRQAPGKGLEWVSNINYNGGYTSYADSVKGRFTISRDNSKNTLYLQMNSLRAEDTAVYYCARSANWHDTALDYWGQGTLVTVSS
VL: DIQMTQSPSSLSASVGDRVTITCRASQSILSYLNWYQQKPGKAPKLLIYAATSRASGVPSRFSGSGSGTDFTLTISSLQPEDFATYYCQQSYDLPLTFGGGTKVEIK
B15: 373_B04 (antibody, V domains shown)
VH: EVQLLESGGGLVQPGGSLRLSCAASGFTFSSYGMNWVRQAPGKGLEWVAGINYNSGYKGYADSVKGRFTISRDNSKNTLYLQMNSLRAEDTAVYYCARSANWHDTALDYWGQGTLVTVSS
VL: DIQMTQSPSSLSASVGDRVTITCRASQSILTYLNWYQQKPGKAPKLLIYAATSRASGVPSRFSGSGSGTDFTLTISSLQPEDFATYYCQQSYETPLTFGGGTKVEIK
B16: 372_B04 (antibody, V domains shown)
VH: EVQLLESGGGLVQPGGSLRLSCAASGFTFDSYGMNWVRQAPGKGLEWVANINYNGGYTSYADSVKGRFTISRDNSKNTLYLQMNSLRAEDTAVYYCARSANWHDTALDYWGQGTLVTVSS
VL: DIQMTQSPSSLSASVGDRVTITCRASQSILSYVNWYQQKPGKAPKLVIYAATSLASGVPSRFSGSGSGTDFTLTISSLQPEDFATYYCQQSYDSPLTFGGGTKVEIK
B17: 372_F03 (antibody, V domains shown)
VH: EVQLLESGGGLVQPGGSLRLSCAASGFTFSSYGMNWVRQAPGKGLEWVAGINYNGGYTSYADSVKGRFTISRDNSKNTLYLQMNSLRAEDTAVYYCARSANWHDTALDYWGQGTLVTVSS
VL: DIQMTQSPSSLSASVGDRVTITCRASQSILSYLNWYQQKPGKAPKLVIYAATSRASGVPSRFSGSGSGTDFTLTISSLQPEDFATYYCQQSYDTPLTFGGGTKVEIK
B18: 372_F08 (antibody, V domains shown)
VH: EVQLLESGGGLVQPGGSLRLSCAASGFTFSDYSMNWVRQAPGKGLEWVSNINYNSGYTGYADSVKGRFTISRDNSKNTLYLQMNSLRAEDTAVYYCARSANWHDTALDYWGQGTLVTVSS
VL: DIQMTQSPSSLSASVGDRVTITCRASQSILTYVNWYQQKPGKAPKLVIYAATSRASGVPSRFSGSGSGTDFTLTISSLQPEDFATYYCQQSYDTPLTFGGGTKVEIK
B19: 372_C07 (antibody, V domains shown)
VH: EVQLLESGGGLVQPGGSLRLSCAASGFTFSDYSMNWVRQAPGKGLEWVSNINYNSGYTSYADSVKGRFTISRDNSKNTLYLQMNSLRAEDTAVYYCARSANWHDTHLDYWGQGTLVTVSS
VL: DIQMTQSPSSLSASVGDRVTITCRASQSILSYLNWYQQKPGKAPKLVIYAATSRHSGVPSRFSGSGSGTDFTLTISSLQPEDFATYYCQQSDNTPLTFGGGTKVEIK
B20: 372_D02 (antibody, V domains shown)
VH: EVQLLESGGGLVQPGGSLRLSCAASGFTFSSYGMHWVRQAPGKGLEWVAGINYNGGYTGYADSVKGRFTISRDNSKNTLYLQMNSLRAEDTAVYYCARSANWHDTALDYWGQGTLVTVSS
VL: DIQMTQSPSSLSASVGDRVTITCRASQSILTYLNWYQQKPGKAPKLVIYAATSRASGVPSRFSGSGSGTDFTLTISSLQPEDFATYYCQQSYDNPLTFGGGTKVEIK
B21: 371_F08 (antibody, V domains shown)
VH: EVQLLESGGGLVQPGGSLRLSCAASGFTFDDYSMNWVRQAPGKGLEWVSGINYNGGYTGYADSVKGRFTISRDNSKNTLYLQMNSLRAEDTAVYYCARSANWHDTALDYWGQGTLVTVSS
VL: DIQMTQSPSSLSASVGDRVTITCRASQSIVSYVNWYQQKPGKAPKLVIYAATSRHSGVPSRFSGSGSGTDFTLTISSLQPEDFATYYCQQSYESPLTFGGGTKVEIK

In this test the target is Human Fc (human). Briefly: ELISA, negative control.
The molecule B1 registered an optical density of 0.345 OD. Molecule B2 returned an optical density of 0.163 OD. The value for B3 was 0.339 OD. B4 yielded an optical density of 0.175 OD.

B5 came in with an optical density of 0.172 OD.

The molecule B6 had an optical density of 0.157 OD. To B7 belongs 0.38 OD; to B8, 0.16 OD; to B9, 0.439 OD. The value for B10 was 0.195 OD; that for B11 was 0.32 OD; that for B12 was 0.289 OD. The value for B13 was 0.221 OD; that for B14 was 0.174 OD; that for B15 was 0.176 OD. In the case of B16, the optical density came out at 0.333 OD.

B17 yielded an optical density of 0.438 OD. Regarding B18, the optical density is 0.335 OD. As for B19, the optical density was 0.279 OD.

As for B20, the optical density was found to be 0.433 OD. With B21, the optical density was determined as 0.301 OD.
